Source: publication PMC6375223

Biological target: SKP2 (UniProt Q13309)
Experiment: co-immunoprecipitation from transfected 293T cells
Details: reference: wild-type PDCD4; sites S67

PDCD4 (from UniProt Q53EL6) PDCD4 S67A
binding against the reference: lost
